Columns and labels:
[1] = molecular target: UHRF1 SRA SUVH5 finger swap (/ A. thaliana finger loop) (UniProt Q96T88); assay: fluorescence polarization; settings: 0.05% NP-40, 10 nM FAM-DNA (temperature not stated), ITC: 25 mM HEPES, 1 mM DTT, 25 C
UHRF1 SRA (WT) = molecular target: T1, UHRF1 SRA (WT) (UniProt Q96T88 414-616); assay: ITC; 35 uM protein in cell, 430 uM DNA in syringe; n 0.5-1.0; FP: 25 mM HEPES pH 7.5, 100 mM NaCl, 0.05% NP-40, 10 nM FAM-DNA (temperature not stated); ITC: 25 mM HEPES, 100 mM NaCl, 1 mM DTT, 25 C; settings: protein: recombinant; tags: N-terminal His6-MBP (retained); blunt
T1 sequence: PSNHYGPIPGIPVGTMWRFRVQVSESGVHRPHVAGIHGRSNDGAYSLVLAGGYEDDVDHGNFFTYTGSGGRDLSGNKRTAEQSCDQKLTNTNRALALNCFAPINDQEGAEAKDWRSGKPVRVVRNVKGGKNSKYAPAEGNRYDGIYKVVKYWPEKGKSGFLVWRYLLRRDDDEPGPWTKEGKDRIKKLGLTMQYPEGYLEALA

Chain of UHRF1 SRA SUVH5 finger swap (/ A. thaliana finger loop) (Q96T88 whole entry): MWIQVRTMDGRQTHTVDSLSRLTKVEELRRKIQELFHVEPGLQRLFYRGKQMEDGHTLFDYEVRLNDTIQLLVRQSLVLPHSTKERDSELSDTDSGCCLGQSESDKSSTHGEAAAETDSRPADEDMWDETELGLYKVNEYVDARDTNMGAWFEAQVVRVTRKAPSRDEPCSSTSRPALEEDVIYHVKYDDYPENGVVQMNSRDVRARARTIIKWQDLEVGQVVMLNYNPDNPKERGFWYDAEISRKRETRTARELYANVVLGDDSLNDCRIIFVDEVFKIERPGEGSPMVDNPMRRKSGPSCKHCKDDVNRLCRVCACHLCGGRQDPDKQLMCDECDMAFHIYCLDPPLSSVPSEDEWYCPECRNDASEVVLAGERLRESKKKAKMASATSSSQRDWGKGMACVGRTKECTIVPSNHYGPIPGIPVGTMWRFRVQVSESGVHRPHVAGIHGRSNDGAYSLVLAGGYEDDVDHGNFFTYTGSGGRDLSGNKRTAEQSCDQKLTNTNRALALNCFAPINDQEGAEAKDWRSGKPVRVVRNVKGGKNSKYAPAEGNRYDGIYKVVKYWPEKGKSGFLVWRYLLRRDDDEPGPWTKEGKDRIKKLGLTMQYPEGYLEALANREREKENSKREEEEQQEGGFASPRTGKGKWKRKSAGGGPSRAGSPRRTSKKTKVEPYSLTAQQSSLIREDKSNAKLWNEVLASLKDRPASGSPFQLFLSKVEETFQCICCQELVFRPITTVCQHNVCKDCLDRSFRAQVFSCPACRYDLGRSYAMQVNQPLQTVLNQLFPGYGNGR

CCATGCGCTGAC (double strand) [He5mC (FAM)]
Kd ([1]; 5mC at position 6 of strand 1, FP: 25 mM HEPES pH 7.5, 100 mM NaCl): 200 nM

CCATGCGCTGAC (double strand) [Sy5mC]
Kd ([1]; 5mC at position 6 of strand 1 and position 6 of strand 2, FP: 25 mM HEPES pH 7.5, 100 mM NaCl): 200 nM

CCATGCGCTGAC (double strand) [UnDNA]
Kd ([1]; FP: 25 mM HEPES pH 7.5, 100 mM NaCl): 200 nM

B1: He5mC (unlabelled, ITC) (dsDNA)
DNA 1: CCATGCGCTGAC
DNA 2: GTCAGCGCATGG
modifications: 5mC at position 6 of strand 1
binding result (UHRF1 SRA (WT)): binds

— PMC6816099, “The finger loop of the SRA domain in the E3 ligase UHRF1 is a regulator of ubiquitin targeting and is required for the maintenance of DNA methylation”
